# B1: human ephrin A1-Fcy chimeric protein (ephrin A1-Fc) (Fc fusion, UniProt P20827 19-182, looked up, not shown: a dimerising Fc or GST)
# chain: DRHTVFWNSSNPKFRNEDYTIHVQLNDYVDIICPHYEDHSVADAAMEQYILYLVEHEEYQLCQPQSKDQVRWQCNRPSAKHGPEKLSEKFQRFTPFTLGKEFKEGHSYYYISKPIHQHEDRCLRLKVTVSGKITHSPQAHDNPQEKRLAADDPEVRVLHSIGHS
# Molecular target: human EphA2 receptor on human cardiac stem cells (hCSCs) (human, UniProt P29317 24-976)
# Assay: cell-based or functional assay
# Sequence of human EphA2 receptor on human cardiac stem cells (hCSCs) (P29317 24-976 limits assumed): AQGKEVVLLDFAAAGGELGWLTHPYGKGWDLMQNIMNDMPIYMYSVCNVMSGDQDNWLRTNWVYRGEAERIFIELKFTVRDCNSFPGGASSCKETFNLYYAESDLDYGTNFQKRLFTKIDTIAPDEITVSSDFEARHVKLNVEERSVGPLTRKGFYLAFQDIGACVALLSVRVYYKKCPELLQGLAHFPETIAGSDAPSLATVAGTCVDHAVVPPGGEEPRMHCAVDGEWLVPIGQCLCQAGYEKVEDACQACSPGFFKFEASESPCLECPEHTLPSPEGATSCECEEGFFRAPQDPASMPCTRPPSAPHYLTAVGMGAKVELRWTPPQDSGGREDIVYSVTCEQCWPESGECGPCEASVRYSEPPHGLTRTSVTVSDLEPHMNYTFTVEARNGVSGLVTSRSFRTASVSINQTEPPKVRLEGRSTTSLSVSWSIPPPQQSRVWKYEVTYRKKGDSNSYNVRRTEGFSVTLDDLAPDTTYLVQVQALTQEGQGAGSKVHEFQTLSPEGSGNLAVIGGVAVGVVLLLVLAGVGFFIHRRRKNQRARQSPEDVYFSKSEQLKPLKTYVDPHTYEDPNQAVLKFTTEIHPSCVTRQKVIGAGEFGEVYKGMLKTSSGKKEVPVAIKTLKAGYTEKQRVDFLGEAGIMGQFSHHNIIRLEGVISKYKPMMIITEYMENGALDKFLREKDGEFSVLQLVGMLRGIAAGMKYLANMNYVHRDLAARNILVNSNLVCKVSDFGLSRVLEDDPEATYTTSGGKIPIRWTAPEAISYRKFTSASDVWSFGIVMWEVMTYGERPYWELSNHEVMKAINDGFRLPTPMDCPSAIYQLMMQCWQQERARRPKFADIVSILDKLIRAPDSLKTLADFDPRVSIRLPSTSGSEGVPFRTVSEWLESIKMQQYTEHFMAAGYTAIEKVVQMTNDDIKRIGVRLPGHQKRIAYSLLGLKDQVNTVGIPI
binder,measurement,value
B1,speed of locomotion of hCSCs within the myocardium (two-photon microscopy),2 fold

# Reference: US20120288481A1 (BRIGHAM AND WOMEN S HOSPITAL, published 2012)
